According to US20230133118A1, “COMPOSITIONS AND METHODS FOR TREATING CANCER” (Adagene AG, priority 2020, published 2023):

Target: human CD137 (human) (UniProt Q07011)
Assay: surface plasmon resonance (SPR); format not described

Sequence of Urelumab (antibody) (VH): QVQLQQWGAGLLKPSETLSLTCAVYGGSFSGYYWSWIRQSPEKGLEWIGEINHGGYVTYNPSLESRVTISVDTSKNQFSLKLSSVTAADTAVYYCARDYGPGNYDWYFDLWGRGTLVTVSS
Sequence of Urelumab (antibody) (VL): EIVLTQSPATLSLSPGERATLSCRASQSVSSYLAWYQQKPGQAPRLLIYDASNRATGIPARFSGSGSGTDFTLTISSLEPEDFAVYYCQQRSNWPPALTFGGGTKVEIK
Sequence of human CD137 (human) (Q07011 24-186 limits assumed): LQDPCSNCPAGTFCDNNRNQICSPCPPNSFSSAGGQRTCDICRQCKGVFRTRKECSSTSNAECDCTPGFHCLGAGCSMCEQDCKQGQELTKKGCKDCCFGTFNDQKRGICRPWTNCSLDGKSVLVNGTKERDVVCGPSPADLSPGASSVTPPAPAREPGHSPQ

Kd: 9.6 nM
Substance: Urelumab (antibody)
